In publication PMC10157535, “Structural basis of phosphorylation-induced activation of the response regulator VbrR” one finds stoichiometry N, binding result and Kd data, which are given here for six molecules.

Series [1] concerns the target VbrR receiver domain (RD, 1-117) (Vibrio parahaemolyticus). As to the kind of experiment: SEC-MALS; SEC-MALLS, Superdex-200 10/30, buffer A supplemented with 5.3 mM BeSO4, 35 mM NaF and 7 mM MgCl2 (BeF3-), 100 uL of ~10 mg/mL protein injected.
In series [2] the target is VbrR DNA-binding domain (DBD, 125-220) (Vibrio parahaemolyticus). As to the kind of experiment: SEC-MALS; SEC-MALLS, Superdex-200 10/30, buffer A (20 mM Tris-HCl pH 8.0, 100 mM NaCl), 100 uL of ~10 mg/mL protein injected, 0.5 mL/min; no BeF3-.
Series [3] concerns the target full-length VbrR (response regulator VbrR from Vibrio parahaemolyticus) (Vibrio parahaemolyticus). The series is described as above.
In series [4] the target is T1, VbrR (monomer fraction) (Vibrio parahaemolyticus, UniProt A0A0L8SKF9 1-220).
T1 sequence: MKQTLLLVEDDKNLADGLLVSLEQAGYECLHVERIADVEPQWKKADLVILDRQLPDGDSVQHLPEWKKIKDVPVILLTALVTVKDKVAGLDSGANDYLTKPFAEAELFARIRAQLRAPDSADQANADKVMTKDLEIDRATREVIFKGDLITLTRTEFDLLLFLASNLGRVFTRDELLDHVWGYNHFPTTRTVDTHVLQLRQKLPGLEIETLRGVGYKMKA
As to the kind of experiment: crystal structure; 4.6 A; VbrR dimer on DNA; BLI (Octet RED, biotinylated protein on streptavidin sensors), PBS: 10 mM phosphate pH 7.4, 2.7 mM KCl, 137 mM NaCl, 25 C; 1:1 fit. The conditions noted are these: protein: recombinant; tags: N-terminal 6xHis; biotinylated for BLI; chain copies: 2; blunt. In general terms: BLI is a label-free optical method that tracks binding on a fibre tip over time.

Series [5] has as its target T1, VbrR (monomer fraction). Put plainly: BLI; VbrR monomer; BLI (Octet RED, biotinylated protein on streptavidin sensors), PBS: 10 mM phosphate pH 7.4, 2.7 mM KCl, 137 mM NaCl, 25 C; 1:1 fit. To be noted: protein: recombinant; tags: N-terminal 6xHis; biotinylated for BLI.
The target in series [6] is T2, VbrR (state not stated) (Vibrio parahaemolyticus, UniProt A0A0L8SKF9 1-220).
T2 sequence: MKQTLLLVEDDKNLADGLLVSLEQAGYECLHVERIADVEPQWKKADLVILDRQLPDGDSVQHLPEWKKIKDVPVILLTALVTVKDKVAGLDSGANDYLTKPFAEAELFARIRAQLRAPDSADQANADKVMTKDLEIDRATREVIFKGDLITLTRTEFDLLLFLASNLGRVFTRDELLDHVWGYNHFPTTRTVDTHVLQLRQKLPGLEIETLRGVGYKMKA
Put plainly: BLI; 2.5-80 uM DNA; oligomeric state not stated; BLI (Octet RED, biotinylated protein on streptavidin sensors), PBS: 10 mM phosphate pH 7.4, 2.7 mM KCl, 137 mM NaCl, 25 C; 1:1 fit. The conditions noted are these: protein: recombinant, tags: N-terminal 6xHis, chain copies: 2.

Series [7] concerns the target T3, VbrR DBD (monomer fraction) (Vibrio parahaemolyticus, UniProt A0A0L8SKF9 125-220).
T3 sequence: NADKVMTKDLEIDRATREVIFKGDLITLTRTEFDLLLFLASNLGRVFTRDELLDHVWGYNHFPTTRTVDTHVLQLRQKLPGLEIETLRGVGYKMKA
Put plainly: BLI; DBD monomer; BLI (Octet RED, biotinylated protein on streptavidin sensors), PBS: 10 mM phosphate pH 7.4, 2.7 mM KCl, 137 mM NaCl, 25 C; 1:1 fit. To be noted: protein: recombinant, tags: N-terminal 6xHis.

Series [8] concerns the target T2, VbrR (state not stated). Put plainly: BLI; 10-160 uM DNA; text order of the two values (0.69, 0.77) matches 30 bp then 49 bp; BLI (Octet RED, biotinylated protein on streptavidin sensors), PBS: 10 mM phosphate pH 7.4, 2.7 mM KCl, 137 mM NaCl, 25 C; 1:1 fit. To be noted: protein: recombinant, tags: N-terminal 6xHis, chain copies: 2.

“VbrR receiver domain (RD, 1-117) (domain or fragment)”: the stoichiometry N in series [1] was determined as 2.

Regarding “VbrR DNA-binding domain (DBD, 125-220) (domain or fragment)”, in series [2], the stoichiometry N was determined as 2.

In the case of “full-length VbrR (response regulator VbrR from Vibrio parahaemolyticus) (natural protein)”, in series [3], the stoichiometry N came out at 2.

B1: exsC promoter 26 bp (dsDNA)
DNA 1: CACAATTCTAATTCTTCATCGCTTGT
DNA 2: ACAAGCGATGAAGAATTAGAATTGTG
As to B1, the binding result in series [4] was “binds”.

B2: exsC promoter 49 bp (dsDNA)
DNA 1: AACACAATTCTAATTCTTCATCGCTTGTCGATATAAACCAAAATCCCAC
DNA 2: GTGGGATTTTGGTTTATATCGACAAGCGATGAAGAATTAGAATTGTGTT
On to B2, for which the values for the Kd in series [5], in series [6] and in series [7] were 270 nM, 770 nM and 140 nM, respectively.

B3: exsC promoter 30 bp (dsDNA)
DNA 1: AACACAATTCTAATTCTTCATCGCTTGTCG
DNA 2: CGACAAGCGATGAAGAATTAGAATTGTGTT
As for B3, the equilibrium dissociation constant (Kd) in series [8] worked out at 690 nM.

As a reminder, the stoichiometry N is the number of molecules, sites or subunits per partner or assembly. What is called Kd is the equilibrium constant for the complex coming apart.
